A value given as a limit tells only on which side of the number the result lay.

For the first assay, the target named is T1, HLA-B*08:01 (human).
T1 construct: Peptide-receptive MHC class I monomer after UV cleavage of a UV-sensitive ligand
The assay is described as follows: UV-ligand exchange, anti-b2m ELISA; peptide exchange yield grade. The text has this: (§1) Candidate peptides for T cell based therapies according to the present invention were further tested for their MHC binding capacity (affinity). The individual peptide-MHC complexes were produced by UV-ligand exchange, where a UV-sensitive peptide is cleaved upon UV-irradiation and exchanged with the peptide of interest as analyzed. Only peptide candidates that can effectively bind and stabilize the peptide-receptive MHC molecules prevent dissociation of the MHC complexes. To determine the yield of the exchange reaction, an ELISA was performed based on the detection of the light chain (β2m) of stabilized MHC complexes. The assay was performed as generally described in Rodenko et al. (Rodenko et al., 2006).
(§2) 96 well MAXISorp plates (NUNC) were coated over night with 2 μg/ml streptavidin in PBS at room temperature, washed 4× and blocked for 1h at 37° C. in 2% BSA containing blocking buffer. Refolded HLA-A*02:01/MLA-001 monomers served as standards, covering the range of 15-500 ng/ml. Peptide-MHC monomers of the UV-exchange reaction were diluted 100-fold in blocking buffer. Samples were incubated for 1 h at 37° C., washed four times, incubated with 2 μg/ml HRP conjugated anti-β2m for 1h at 37° C., washed again and detected with TMB solution that is stopped with […]. Absorption was measured at 450 nm. Candidate peptides that show a high exchange yield (preferably higher than 50%, most preferred higher than 75%) are generally preferred for a generation and production of antibodies or fragments thereof, and/or T cell receptors or fragments thereof, as they show sufficient avidity to the MHC molecules and prevent dissociation of the MHC complexes.
On the technique in general: ELISA stands for enzyme-linked immunosorbent assay.
Turning to DILDRTGHQL, the binding result is “binds”. Same read-out and setting: under DVSDKITFM stands “binds”.

A further assay addresses T2, HLA-B*07:02 (human).
T2 construct: Peptide-receptive MHC class I monomer after UV cleavage of a UV-sensitive ligand
Described as above.
Source text: as §1, §2
The molecule GEPTSDITLL registered a peptide exchange yield of 50 to 75%. On the same count and under the same terms, under HPDLTSMTF stands at least 75%; under FPYYLKIDY, 50 to 75%; under SPKIFDSSW, 50 to 75%. On the same count and under the same terms, the result for LPFFTDKTLSF reads at least 75%; that for HPFGYDLTL, at least 75%; that for NPADISVAL, at least 75%. In turn, APFKDVTEY displayed a peptide exchange yield of 50 to 75%. VPRNQDESV registered a peptide exchange yield of at least 75%.

In a further assay the target is T3, HLA-B*44:05 (human).
T3 construct: Peptide-receptive MHC class I monomer after UV cleavage of a UV-sensitive ligand
Described as above.
Source text: as §1, §2
Consider KEVDDTLLVNEL, for which the peptide exchange yield was at least 75%. Same read-out and setting: under DETAAYKIM stands 50 to 75%; under LENMYDLTF, at least 75%; under AQDTTYLWW, at least 75%. In turn, DESKYTWSW showed a peptide exchange yield of at least 75%.

As to AEFFDYTVRTL, the peptide exchange yield is at least 75%. DEAVRDITW: the peptide exchange yield is at least 75%. TEGDFTKEASTY: the peptide exchange yield lay in the range of 50 to 75%. With AESLAVHDI, the peptide exchange yield is 50 to 75%. For the molecule GEYRCQTDL, the peptide exchange yield was at least 75%. Same read-out and setting: the result for KPREEQYDSTY reads at least 75%; that for RDATASLW, at least 75%. In turn, TDFTKIASF showed a peptide exchange yield of at least 75%. DETHTLQF came in with a peptide exchange yield of at least 75%. Take QEVDISLHY: the peptide exchange yield was at least 75%. Regarding DETIWYVRF, the peptide exchange yield is at least 75%. On to AERDLDVTI, for which the peptide exchange yield is at least 75%.

As to KENQDHSYSL, the peptide exchange yield was at least 75%.

Another assay concerns the target T4, HLA-A*03:01 (human).
T4 construct: Peptide-receptive MHC class I monomer after UV cleavage of a UV-sensitive ligand
The assay is described as above.
Source text: as §1, §2
Consider IVRDLSCRK, for which the peptide exchange yield was 50 to 75%. The molecule NLYDWSASY came in with a peptide exchange yield of 20 to 50%. Regarding RLPAADFTRY, the peptide exchange yield was 20 to 50%. For the molecule KAYDQTHLY, the peptide exchange yield was at least 75%.

As to RLWDFTMNAK, the peptide exchange yield was 50 to 75%. With HLYYDVTEK, the peptide exchange yield lay in the range of 50 to 75%.

Another assay has as its target T5, HLA-A*02:01 (human).
T5 construct: Peptide-receptive MHC class I monomer after UV cleavage of a UV-sensitive ligand
The description is as above.
Source text: as §1, §2
With SLIDITHGF, the binding result is “binds”.

A further assay has as its target T6, HLA-A*24:02 (human).
T6 construct: Peptide-receptive MHC class I monomer after UV cleavage of a UV-sensitive ligand
The assay is described as above.
Source text: as §1, §2
For the molecule IYQFARLDY, the peptide exchange yield is 20 to 50%. Still for that read-out and setting: under YHDQTISF stands 10 to 20%. The same measure, in the same setting: the result for VYIDDSVEL reads at least 75%; that for VYLDASKVPGF, at least 75%. Same read-out and setting: under KSYHDQTISF stands at least 75%; under IYPDGTLLI, at least 75%. IFVPTDRSL: the peptide exchange yield was in the range of 20 to 50%. VFDETKNLL registered a peptide exchange yield of 20 to 50%. QAIDLSLNF: the peptide exchange yield fell in the range of 20 to 50%. Still for that read-out and setting: under RYVNDYTNSF stands at least 75%. For EYQDFSTLF, the peptide exchange yield is at least 75%.

Take TYLPTDASLSF: the peptide exchange yield is at least 75%.

Take RQDESYLNF: the peptide exchange yield was 20 to 50%. As for AFDKTIVKL, the peptide exchange yield was 20 to 50%. On to HLFYDVTVF, for which the peptide exchange yield lay within 20 to 50%.

As for VYVDTTELAL, the peptide exchange yield is at least 75%.

Source of the values: patent publication US20220098269A1 (IMMATICS BIOTECHNOLOGIES, published 2022).
